From patent US20030219445A1 come the findings set out here.

Values joined by “and” are separate entries in the source; they are usually repeats but may differ in a detail not shown here. Identical values can stand only once.

For assay [1], the target named is biotinylated 9C5 antibody (anti-human CD34 monoclonal antibody, biotinylated with Biotin Hydrazide). In words: cell-based or functional assay.
For assay [2], the target named is CD34 antibody 9069 (9C5) coated on M-450 Dynabeads. In words: cell-based or functional assay.

B1: free PR34+ peptide Ac-QQGWFPKD (peptide)
peptide: QQGWFPKD
modifications: N-terminal acetyl (printed Ac-QQGWFPKD)
On to B1, for which, in assay [1], the % SUP-T1 Yield (tube 2, cells released with free PR34+ peptide) came out at 43%; the % SUP-T1 Yield (tube 3, cells released with free PR34+ peptide) was 31%; the % T-cells released with 9069N 2.5 mg (CD2-9069N 1 µg, b-9069 1 µg) worked out at 71%; the % T-cells released with 9069N 2.5 mg (CD2-9069N 1 µg, b-9069 10 µg) is 87% and 65%. In assay [1], the % T-cells released with 9069N 2.5 mg (CD2-9069N 5 µg, b-9069 1 µg) is 61% and 56%; the % T-cells released with 9069N 2.5 mg (CD2-9069N 5 µg, b-9069 10 µg) turned out to be 50%; the % Yield of CD8+ cells (condition 3, released with free PR34+ peptide) worked out at 16%; the % Yield, released with PR34+ 2.5 mg (streptavidin coated Dynabead control) came out at 81.5%. In addition, in assay [2], the % Yield, released with PR34+ 2.5 mg (beads with 1 µg antibody per 10^8 beads) was determined as 55.9%; the % Yield, released with PR34+ 2.5 mg (beads with 5 µg antibody per 10^8 beads) came to 68.9%; the % Yield, released with PR34+ 2.5 mg (beads with 20 µg antibody per 10^8 beads) came out at 47.4%; the % Yield, released with PR34+ 2.5 mg (beads with 50 µg antibody per 10^8 beads) stood at 57.5%. In assay [2], this molecule displayed a release of Camma cells from anti-CD34-coated Dynabeads above 75% and a yield of Camma cells after release with PR34 peptide above 70%.
